The data set concerns Escherichia coli TOP10. Put plainly: shrunken log2 fold change of peptide-encoding DNA abundance (4.5 h post-induction vs induction); higher = less antimicrobial activity (less host growth inhibition). Conditions: time post-induction: 4.5 h; library: site-saturation at positions 5, 18, 19, 20.
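Note: peptides expressed intracellularly from a pBAD plasmid library in pooled LB shake-flask culture, induced with 0.3% L-arabinose, DNA abundance read by NGS, three biological replicates, DESeq2 with apeglm shrinkage.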

RRIRKRPPRLPRPRPRPLRCPRP: the “shrunken log2 fold change” value came out at 0.35.
Then RRIRDRPPRLPRPRPRPEFCPRP, with 1.14.
Turning to RRIRFRPPRLPRPRPRPPKAPRP, the “shrunken log2 fold change” value worked out at 0.332.
As for RRIRRRPPRLPRPRPRPRHRPRP, the “shrunken log2 fold change” value came to 0.178.
Regarding RRIRSRPPRLPRPRPRPWPSPRP, the “shrunken log2 fold change” value amounted to 0.117.
For RRIRSRPPRLPRPRPRPIQMPRP, the “shrunken log2 fold change” value is -0.103.
Regarding RRIRLRPPRLPRPRPRPNIRPRP, the “shrunken log2 fold change” value is -0.585.
For the sequence RRIRKRPPRLPRPRPRPSISPRP, the “shrunken log2 fold change” value is 0.146.
Consider RRIRCRPPRLPRPRPRPWRIPRP, for which the “shrunken log2 fold change” value was -0.321.
With RRIRTRPPRLPRPRPRPDEKPRP the figure was 0.0325; with RRIRYRPPRLPRPRPRPDLRPRP, -1.03.
As to RRIRRRPPRLPRPRPRPTSYPRP, the “shrunken log2 fold change” value is -0.0452.
As for RRIRVRPPRLPRPRPRPGFTPRP, the “shrunken log2 fold change” value was -0.143.
For the sequence RRIRGRPPRLPRPRPRPCIMPRP, the “shrunken log2 fold change” value came to 0.177.
On to RRIRNRPPRLPRPRPRPNGRPRP, for which the “shrunken log2 fold change” value was -0.00776.
As for RRIRVRPPRLPRPRPRPEVTPRP, the “shrunken log2 fold change” value is -0.0717.
As to RRIRWRPPRLPRPRPRPTTTPRP, the “shrunken log2 fold change” value was 0.567.
For the sequence RRIRRRPPRLPRPRPRPMVVPRP, the “shrunken log2 fold change” value came out at 0.00307.
RRIRPRPPRLPRPRPRPMSMPRP: the “shrunken log2 fold change” value was -0.11.
Turning to RRIRYRPPRLPRPRPRPEACPRP, the “shrunken log2 fold change” value was -0.0328.
Turning to RRIRRRPPRLPRPRPRPYEQPRP, the “shrunken log2 fold change” value was -0.214.
With RRIRKRPPRLPRPRPRPLHYPRP the figure was -0.00227; with RRIRDRPPRLPRPRPRPLTYPRP, -0.339.
As for RRIRCRPPRLPRPRPRPGWYPRP, the “shrunken log2 fold change” value is -0.244.
With RRIRVRPPRLPRPRPRPWDIPRP, the “shrunken log2 fold change” value is -0.235.
For the sequence RRIRYRPPRLPRPRPRPIWTPRP, the “shrunken log2 fold change” value came out at 0.066.
As to RRIRLRPPRLPRPRPRPETKPRP, the “shrunken log2 fold change” value was 0.00291.
With RRIRHRPPRLPRPRPRPQFFPRP the figure was -0.619; with RRIRLRPPRLPRPRPRPPNNPRP, -0.106; with RRIRCRPPRLPRPRPRPGTTPRP, 0.844.
Take RRIRNRPPRLPRPRPRPYQLPRP: the “shrunken log2 fold change” value was found to be 0.327.
Take RRIRRRPPRLPRPRPRPEYDPRP: the “shrunken log2 fold change” value was 0.109.
On to RRIRMRPPRLPRPRPRPSWDPRP, for which the “shrunken log2 fold change” value came out at 0.709.
As for RRIRCRPPRLPRPRPRPEAVPRP, the “shrunken log2 fold change” value stood at 0.383.
Consider RRIRLRPPRLPRPRPRPDHGPRP, for which the “shrunken log2 fold change” value was -0.147.
Then RRIRKRPPRLPRPRPRPACYPRP, with 0.13.
As for RRIRGRPPRLPRPRPRPTSEPRP, the “shrunken log2 fold change” value worked out at 0.339.
As for RRIRMRPPRLPRPRPRPNERPRP, the “shrunken log2 fold change” value turned out to be 0.69.
As to RRIRKRPPRLPRPRPRPMTCPRP, the “shrunken log2 fold change” value turned out to be 0.0478.
As for RRIRYRPPRLPRPRPRPSICPRP, the “shrunken log2 fold change” value is -0.0533.
For the sequence RRIRYRPPRLPRPRPRPPRSPRP, the “shrunken log2 fold change” value was -0.148.
Then RRIRMRPPRLPRPRPRPMHSPRP, with 0.126; and RRIRDRPPRLPRPRPRPVVMPRP, with 0.194.
Turning to RRIRDRPPRLPRPRPRPWNIPRP, the “shrunken log2 fold change” value was found to be 0.0629.
For RRIRYRPPRLPRPRPRPFCEPRP, the “shrunken log2 fold change” value was -0.456.
RRIRDRPPRLPRPRPRPEVRPRP: the “shrunken log2 fold change” value is 1.91.
With RRIRWRPPRLPRPRPRPNLIPRP the figure was 0.0144.
Then RRIRMRPPRLPRPRPRPRWWPRP, with 1.11; and RRIRFRPPRLPRPRPRPLCRPRP, with -0.406.
For RRIRLRPPRLPRPRPRPFDDPRP, the “shrunken log2 fold change” value is -0.00884.
For RRIRPRPPRLPRPRPRPIGCPRP, the “shrunken log2 fold change” value was -0.0888.
As to RRIRRRPPRLPRPRPRPDHDPRP, the “shrunken log2 fold change” value turned out to be 0.335.
With RRIRARPPRLPRPRPRPAKSPRP the figure was 0.061.
As to RRIRSRPPRLPRPRPRPQFIPRP, the “shrunken log2 fold change” value is -1.79.
Take RRIRYRPPRLPRPRPRPTHNPRP: the “shrunken log2 fold change” value was -0.702.
Then RRIRARPPRLPRPRPRPMQRPRP, with 0.383; and RRIRCRPPRLPRPRPRPVTGPRP, with -0.0982.
Regarding RRIRYRPPRLPRPRPRPIHFPRP, the “shrunken log2 fold change” value was -0.679.
Turning to RRIRNRPPRLPRPRPRPDHIPRP, the “shrunken log2 fold change” value worked out at 0.00647.
With RRIRVRPPRLPRPRPRPMKFPRP, the “shrunken log2 fold change” value is -0.124.
Then RRIRGRPPRLPRPRPRPLNSPRP, with 0.181.
Then RRIRGRPPRLPRPRPRPVSHPRP, with 0.389.
With RRIRQRPPRLPRPRPRPSVMPRP the figure was -0.283.
As for RRIRIRPPRLPRPRPRPIWDPRP, the “shrunken log2 fold change” value is -0.282.
As to RRIRYRPPRLPRPRPRPDNKPRP, the “shrunken log2 fold change” value is -0.609.
For the sequence RRIRPRPPRLPRPRPRPNIYPRP, the “shrunken log2 fold change” value is -0.69.
As to RRIRGRPPRLPRPRPRPCEQPRP, the “shrunken log2 fold change” value came out at 0.48.
With RRIRERPPRLPRPRPRPPYHPRP, the “shrunken log2 fold change” value is -0.456.
With RRIRCRPPRLPRPRPRPTAEPRP, the “shrunken log2 fold change” value was 0.363.
Then RRIRDRPPRLPRPRPRPKNAPRP, with -0.0796.
As for RRIRVRPPRLPRPRPRPIFKPRP, the “shrunken log2 fold change” value is -0.0901.
For RRIRVRPPRLPRPRPRPSCIPRP, the “shrunken log2 fold change” value is -0.423.
Consider RRIRTRPPRLPRPRPRPWMQPRP, for which the “shrunken log2 fold change” value is -0.0757.
With RRIRFRPPRLPRPRPRPCDEPRP, the “shrunken log2 fold change” value came to 0.112.
For the sequence RRIRVRPPRLPRPRPRPKWQPRP, the “shrunken log2 fold change” value is -0.0246.
Turning to RRIRWRPPRLPRPRPRPMAYPRP, the “shrunken log2 fold change” value was -0.0846.
With RRIRVRPPRLPRPRPRPTSGPRP the figure was 0.0674; with RRIRDRPPRLPRPRPRPKWPPRP, 0.466.
Then RRIRVRPPRLPRPRPRPSGDPRP, with -0.251; and RRIRYRPPRLPRPRPRPLAMPRP, with -0.311; and RRIRHRPPRLPRPRPRPHIEPRP, with 0.032.
With RRIRKRPPRLPRPRPRPMYMPRP the figure was -0.103; with RRIRNRPPRLPRPRPRPGVFPRP, 0.117.
Regarding RRIRWRPPRLPRPRPRPYKCPRP, the “shrunken log2 fold change” value came to 0.0561.
Then RRIRNRPPRLPRPRPRPKSFPRP, with -0.00133; and RRIRHRPPRLPRPRPRPTGPPRP, with 0.149; and RRIRSRPPRLPRPRPRPLGTPRP, with -0.216.
RRIRHRPPRLPRPRPRPGLKPRP: the “shrunken log2 fold change” value came out at 0.182.
With RRIRRRPPRLPRPRPRPNRYPRP the figure was -0.365; with RRIRPRPPRLPRPRPRPERWPRP, 0.56; with RRIRLRPPRLPRPRPRPGVCPRP, 0.195.
Then RRIRMRPPRLPRPRPRPRPLPRP, with 1.17.
For the sequence RRIRSRPPRLPRPRPRPFMSPRP, the “shrunken log2 fold change” value is 0.00606.
As for RRIRMRPPRLPRPRPRPIWNPRP, the “shrunken log2 fold change” value was -0.0214.
Then RRIRYRPPRLPRPRPRPSFIPRP, with -0.851.
Regarding RRIRWRPPRLPRPRPRPFIWPRP, the “shrunken log2 fold change” value was determined as 0.205.
Regarding RRIRARPPRLPRPRPRPWGRPRP, the “shrunken log2 fold change” value came out at 0.198.
RRIRPRPPRLPRPRPRPWRCPRP: the “shrunken log2 fold change” value amounted to 0.199.
Regarding RRIRDRPPRLPRPRPRPWSRPRP, the “shrunken log2 fold change” value is -0.612.
In the case of RRIRFRPPRLPRPRPRPSDIPRP, the “shrunken log2 fold change” value was -0.385.
RRIRMRPPRLPRPRPRPRPTPRP: the “shrunken log2 fold change” value was 1.27.
As to RRIRSRPPRLPRPRPRPRLMPRP, the “shrunken log2 fold change” value was found to be 0.198.
Turning to RRIRCRPPRLPRPRPRPYKGPRP, the “shrunken log2 fold change” value is -0.153.
In the case of RRIRTRPPRLPRPRPRPSRSPRP, the “shrunken log2 fold change” value was -0.0434.
For the sequence RRIRQRPPRLPRPRPRPNNAPRP, the “shrunken log2 fold change” value is -0.216.
On to RRIRSRPPRLPRPRPRPGCKPRP, for which the “shrunken log2 fold change” value was -0.00169.
As for RRIRSRPPRLPRPRPRPGEPPRP, the “shrunken log2 fold change” value was -0.054.
Consider RRIRIRPPRLPRPRPRPKNMPRP, for which the “shrunken log2 fold change” value is -0.577.
As to RRIRIRPPRLPRPRPRPNFLPRP, the “shrunken log2 fold change” value was -0.677.
Turning to RRIRSRPPRLPRPRPRPKDHPRP, the “shrunken log2 fold change” value was -0.131.
Regarding RRIRMRPPRLPRPRPRPLWNPRP, the “shrunken log2 fold change” value is -0.182.
With RRIRERPPRLPRPRPRPYYVPRP the figure was -0.559.
Take RRIRVRPPRLPRPRPRPTKIPRP: the “shrunken log2 fold change” value is -0.321.
Take RRIRFRPPRLPRPRPRPHYVPRP: the “shrunken log2 fold change” value was -1.78.
As for RRIRCRPPRLPRPRPRPLKEPRP, the “shrunken log2 fold change” value was found to be 0.244.
Take RRIRARPPRLPRPRPRPFDAPRP: the “shrunken log2 fold change” value stood at 0.116.
Take RRIRERPPRLPRPRPRPAGIPRP: the “shrunken log2 fold change” value is -0.536.
As for RRIRSRPPRLPRPRPRPNRLPRP, the “shrunken log2 fold change” value is -0.205.
RRIRNRPPRLPRPRPRPPQGPRP: the “shrunken log2 fold change” value was 0.192.
As to RRIRPRPPRLPRPRPRPQDWPRP, the “shrunken log2 fold change” value was 0.0908.
For RRIRGRPPRLPRPRPRPNQIPRP, the “shrunken log2 fold change” value was determined as 0.109.
With RRIRARPPRLPRPRPRPQEKPRP the figure was -0.0334; with RRIRCRPPRLPRPRPRPGVYPRP, -0.0723.
Regarding RRIRDRPPRLPRPRPRPSYLPRP, the “shrunken log2 fold change” value is -0.233.
As for RRIRSRPPRLPRPRPRPIFRPRP, the “shrunken log2 fold change” value was 0.0112.

Source of the values: the supplement of paper PMC9112550, “Optimization of the antimicrobial peptide Bac7 by deep mutational scanning” (BMC Biology, 2022).
